Laboratory results from the nanobody polyreactivity screen of Harvey et al. (2022).

Experiment: yeast display, Sf9 membrane polyspecificity reagent, FACS + sequencing; frameworks hold sequencing errors
In short: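 A synthetic nanobody library was expressed on Saccharomyces cerevisiae BJ5465 by galactose induction for 36–48 hours. The library was stained for 1 hour at 4 °C with 10% biotinylated, detergent-solubilized Sf9 membrane reagent and enriched with streptavidin microbeads before FACS. Low and high (top ~1%) gates were set on anti-HA fluorescence for expression and streptavidin fluorescence for reagent binding, and each polyreactivity label reflects the gate of origin.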
For “QVQLVESGGGLVQAGGSLRLICAASGSIFTVYAMGWYRQAPGKERELVADIDYGGTYYADSVKGRFTISRDNAKNTVYLQMNSLKPEDTAVYYCAALAALDYGQLYLDDDDYWGQGTQVTVSS”, the “polyreactivity (PSR sort gate)” value was “low polyreactivity”. With “QVQLVESGGGLVQAGGSLRLICAASGSIFVYNAMGWYRQAPGKERELVAAISYSGGRTYYADSVKGRFTISRDNAKNTVYLQMNSLKPEDTAVYYCAARSQRHKLSREYNYWGQGTQVTVSS” the “polyreactivity (PSR sort gate)” value was “high polyreactivity”. With “QVQLVESGGGLVQAGGSLRLICAASGSIFYYYAMGWYRQAPGKERELVATITWNGAGTFYADSVKGRFTISRDNAKNTVYLQMNSLKPEDTSVYYCAASWYGESGYEYWGQGTQVTVSS” the “polyreactivity (PSR sort gate)” value was “low polyreactivity”. For “QVQLVESGGGLVQAGGSLRLICAASGSIIAINVMGWYRQAPGKEREFVAAISVRSGSTYYADSVKGRFTISRDNAKNTVYLQMNSLKPEDTAVYYCAARTSRFWRGGGLDYWGQGTQVTVSS”, the “polyreactivity (PSR sort gate)” value was “high polyreactivity”. In the case of “QVQLVESGGGLVQAGGSLRLICAASGSISYEYAMGWYRQAPGKERELVASIDSDGAGTYYADSVKGRFTISLDNAKNTVYLQMNSLKPEDTAVYYCNSEWYYPYYYSRMDYWGQGTQVTVSS”, the “polyreactivity (PSR sort gate)” value is reported as “low polyreactivity”. With “QVQLVESGGGLVQAGGSLRLICAASGSIYYSYGMGWYRQAPGKERELVAAITSSGGGTYYADSVKGRFTISRDNAKNTFYLQMNSLKPEDTAVYYCAADDRNYNYYPTFYYWGQGTQVTVSS” the “polyreactivity (PSR sort gate)” value was “low polyreactivity”. In the case of “QVQLVESGGGLVQAGGSLRLICAASGSNFWGNTMGWYRQAPGKERELVATISRRGGSTNYADSVKGRFTISRDNAKNTVYLQMNSLKPEDTAVYYCAAVTIYRSYRGNPYYYWGQGTQVTVSS”, the “polyreactivity (PSR sort gate)” value is reported as “high polyreactivity”. In the case of “QVQLVESGGGLVQAGGSLRLICAASGSTFAYYVMGWYRPAPGTEREFVATITGSGGRTYYADSVKGRFTISRDNAKNTVYLQMISLKPEDTAVYYCAAGVYTGQHEYDYWGQGTQVTVSS”, the “polyreactivity (PSR sort gate)” value is reported as “low polyreactivity”. In the case of “QVQLVESGGGLVQAGGSLRLICAASGSTFERYAMGWYRQAPGKERELVAAIDSRSGSTSYADSVKGRFTISRDNAKNTVYLQMNSLKPEDTAVYYCAKDYYRPWYDRPLGYDYWGQGTQVTVSS”, the “polyreactivity (PSR sort gate)” value is reported as “low polyreactivity”. With “QVQLVESGGGLVQAGGSLRLICAASGSTFGRYAMGWYRQAPGKERELVARISWGGGSTYYADSVKGRFTISRDNAKNTVYLQMYSLKPEDTAVYYCATRVYRSAVSYDYWGQGTQVTVSS” the “polyreactivity (PSR sort gate)” value was “high polyreactivity”. For “QVQLVESGGGLVQAGGSLRLICAASGSTFGTYAMGWYRQAPGKERELVAAISWSGGSTYYADSVKGRFTISRDNAKNTVYLQMNSLQPEDTAVYWGQGTQVTVSS”, the “polyreactivity (PSR sort gate)” value was “low polyreactivity”. For “QVQLVESGGGLVQAGGSLRLICAASGSTFGVNAMGWYRQAPGKERELVAAITQSGGSTFYADSVKGRFTISRDKAKNTVYLQMNSLKPEDTAVYYWGQGTQVTVSS”, the “polyreactivity (PSR sort gate)” value was “low polyreactivity”. With “QVQLVESGGGLVQAGGSLRLICAASGSTFIWNSMGWYRQAPGKERELGATITGSGDRTTYADSVKGRFTISRDNAKNTVYLQMNSLKPEDTAVYYCAGDAYRWWVRYDYWGQGTQVTVSS” the “polyreactivity (PSR sort gate)” value was “low polyreactivity”. With “QVQLVESGGGLVQAGGSLRLICAASGSTFKTYAMGWYRQAPGQEREFVASISGSGGSTSYADSVKGRFTISRDNAKNTVYLQMNSLKPEDTAVYYCAARLQKPTIGKGVYYWGQGTLVTVSS” the “polyreactivity (PSR sort gate)” value was “high polyreactivity”. In the case of “QVQLVESGGGLVQAGGSLRLICAASGSTFLTNVMGWYRQAPGKERELVAAISRGGGRTYYADSVKGRFTISRDNAKNTVYLQMNSLKPEDTAVYYCNAVDASHAGPVGGAFRYDYWGQGTQVTVSS”, the “polyreactivity (PSR sort gate)” value is reported as “high polyreactivity”. In the case of “QVQLVESGGGLVQAGGSLRLICAASGSTFPPNAMGWYRQAPGKERELVAAISKRGGSTTYSDSVKGRFTISRDYAKNTVYLQMNSLIPEDTAVYYCAARRSGRSHYEKMDYWGQGTQVSVSS”, the “polyreactivity (PSR sort gate)” value is reported as “low polyreactivity”. With “QVQLVESGGGLVQAGGSLRLICAASGSTFPRNAMGWYRQAPGKERELVATITSSGGGTYYADSVKGRFTISRDNAMNTVYLQMNSLKPEDTAVYYCNADGPAGDAFDYWGQGTQVTVSS” the “polyreactivity (PSR sort gate)” value was “low polyreactivity”. With “QVQLVESGGGLVQAGGSLRLICAASGSTFSSNAMAWFRQAPGKERELVAAIDRGGSTNYADSVKGRFTISRDNAKNTVYFQMNCLKAEDTAVYYCKAERVTYDTGRAVLPGGYWGQGTQVTVSS” the “polyreactivity (PSR sort gate)” value was “low polyreactivity”. For “QVQLVESGGGLVQAGGSLRLICAASGSTFVVNAMGWYRQAPGKERELVAAIRNSGSTTYADSVKGRFTISRDNAKNTVYLQMNSLKPEDTAVYYCATDFSATVTAVQINPYDYWGQGTQVTVSS”, the “polyreactivity (PSR sort gate)” value was “low polyreactivity”. With “QVQLVESGGGLVQAGGSLRLICAASGSTFYDNTMGWYRQAPGKERELVAAISSGGGTYYADSVKGRFTISRDNAKNTVYLQMNSLKPEDTSVYYCNADQTAYGKPGRAYGFDYWGQGTQVTVSS” the “polyreactivity (PSR sort gate)” value was “low polyreactivity”. In the case of “QVQLVESGGGLVQAGGSLRLICAASGSTLPGYVKGWYRQAPGKERELVAAITKSGGSTYYADSVKGRFTISRDNAKNTVYLQMNSLKPEDTAVYYCAVGVKAQIAGDYWGQGTQVTVSS”, the “polyreactivity (PSR sort gate)” value is reported as “low polyreactivity”. For “QVQLVESGGGLVQAGGSLRLICAASGSTQSPYAMGWYRQAPGKERDFVAAISTSGVSTYYADSVKGRFTISRDNAKNTVDLQMNSLKPVDTAVYYCATRYYIYGSTLKLYDYWGQGTQVTVSS”, the “polyreactivity (PSR sort gate)” value was “high polyreactivity”. With “QVQLVESGGGLVQAGGSLRLICAASGSTQVYYAMGWYRQAPGKETELVASINHSGARTRYADSVKGRFTISRDNAKNTVYLQMNSLKPEVTAVYYCAAVARSTTYRYNYWGQGTQVTVSS” the “polyreactivity (PSR sort gate)” value was “high polyreactivity”. With “QVQLVESGGGLVQAGGSLRLICAASGSTRRYVMGWYRQAPGKERELVAVISRGGSTYYADSVKGRFTISRDNAKNTVYLQMNSLKPEDTAVYYCNVQPVIPRGGDYWGQGTQVTVSS” the “polyreactivity (PSR sort gate)” value was “high polyreactivity”. With “QVQLVESGGGLVQAGGSLRLICAASGSTSPYYTRGWYRQAPGKERELVASINESGGSTYYADSVKARFTISRDNAKNTVYLQMHTLKPEDTAGYNCNAEYTTPSYPVYSIDYYWFDYWGQGTQVTVSS” the “polyreactivity (PSR sort gate)” value was “low polyreactivity”. In the case of “QVQLVESGGGLVQAGGSLRLICAASGYIFRDYAMGWYRQAPGKERELVATISSGGSTSYADSVKGRFTISRDNAKNTVYLQMNSLKPEDTAVYYCAADVANTSAEYYYWGQGTQVTVSS”, the “polyreactivity (PSR sort gate)” value is reported as “low polyreactivity”. For “QVQLVESGGGLVQAGGSLRLICAASGYIFRPNAMGWYRQAPGKERELVASISSGGSTYYADSVKGRFTISRDNAKNTVYLQMNSLKPEDTAVYYCNARHYPWFAAYGSYAYEYWGQGTQVTVSS”, the “polyreactivity (PSR sort gate)” value was “low polyreactivity”. With “QVQLVESGGGLVQAGGSLRLICAASGYTFPRYTMGWYRQAPGKERELVAAITSSGSTNYADSVKGRFTISRDNAKNTVYLQMNCLKPEDTAVYYCATLYRDWWSGYLEVDYWGQGTQVTVSS” the “polyreactivity (PSR sort gate)” value was “high polyreactivity”. For “QVQLVESGGGLVQAGGSLRLICAASGYTFTGYAMGWYRQAPGKEREFVAGITWRTGRTYYADSVNGRFTISRDNAKNTVYLQMNSLKPEDTAVYYCAAVPWKRYDYYTPFARGYWGQGTQVTVSS”, the “polyreactivity (PSR sort gate)” value was “low polyreactivity”. With “QVQLVESGGGLVQAGGSLRLICAASGYTLATYTMRWYIQAPGKERELVAAISFGGSTYYADSVKGRFTISRDNAKNTVYLQMNSLKPEDTAVYYCAVYGDSYWGAYYYSDGYWGQGTQVTVSS” the “polyreactivity (PSR sort gate)” value was “low polyreactivity”. For “QVQLVESGGGLVQAGGSLRLICAASRFTYYRNVMGWYRQAPGKERELVAPISRRGDRTYADSVKGRFTISRDNAKNTVYLQMNSLKPEDTAVYYFAPTPYSYWTRYYYWGQGTQVTVTS”, the “polyreactivity (PSR sort gate)” value was “high polyreactivity”. In the case of “QVQLVESGGGLVQAGGSLRLICAATGFTFLFYDMGWYRQAPGKERALVAASTSDGSTYYADSVKGRFTISRDNAKNTVYLQMNSLKPEDTAVYYCNADEPDEAYLYQSDYWGQGTQVTVSS”, the “polyreactivity (PSR sort gate)” value is reported as “low polyreactivity”. In the case of “QVQLVESGGGLVQAGGSLRLICADSGRIFNRYAMGWYRQAPGKEREFVAGITWNGGSTYYADSVKGRFTISRDNSKNTVNLQMNSLKPEDTAVYYCAATHYYYGTSRYDYWGQGTQVTVSS”, the “polyreactivity (PSR sort gate)” value is reported as “high polyreactivity”. For “QVQLVESGGGLVQAGGSLRLICADSGSTFSPNGMGWYTQAHGKERELVAAITSVGSTYYAESVEGRFTISRDNELNTVYFQMNSLQPVDTAVFYCAKGQRDSEEYDYWGQGTQVTVSS”, the “polyreactivity (PSR sort gate)” value was “low polyreactivity”. With “QVQLVESGGGLVQAGGSLRLICDASGLTFIRNAMGCYRQATGKERELVAAITRRGGSTYYADSVKGRFTISRDNAKNTVYLQMHSLQPEDTPVDYCARRLYPSASYDYDYWGQGTQETVSS” the “polyreactivity (PSR sort gate)” value was “high polyreactivity”. In the case of “QVQLVESGGGLVQAGGSLRLICYASGSIFWVYAMGWYRQAPGKEWELVADIRYRDGSTHYADSVKGRFTISRDNAKNTVYLQMNSLKPEDTAVYYCAADDLPSTGYDYWGPGTQVTVSS”, the “polyreactivity (PSR sort gate)” value is reported as “low polyreactivity”. With “QVQLVESGGGLVQAGGSLRLIFAASGRTFVLNAMRWYRQAPGKEREFVAAISWGGVRTYYADSVKGRFTISRDNAKNTVYLQMNSLKPEDTAVYYCATCGSRYRRYDYWGQGTQVTVSS” the “polyreactivity (PSR sort gate)” value was “high polyreactivity”. In the case of “QVQLVESGGGLVQAGGSLRLISAASGNIVYFNAMGWYRQAPGKERELVAAISRAGSTYYADSVKGRFTISRDNAKNTVYLQMNSLKQEDTAVYYCAATTGRPDNYYYWGQGTQVTVSS”, the “polyreactivity (PSR sort gate)” value is reported as “high polyreactivity”. With “QVQLVESGGGLVQAGGSLRLNCAASGSIFDDYAMGWYRQAPGKERELVAAINIRTGSTYYADSEKGRFTISRDNAKNTVYLQMNSLKPEDTAVYYCNSVVRGFVRHLDYWGQGTQVTVSS” the “polyreactivity (PSR sort gate)” value was “low polyreactivity”. In the case of “QVQLVESGGGLVQAGGSLRLNCAASGSIFDKNAMGWYRQAPGKERELVAAISRSGGSTYYADSVKGRFTISRDNAKNTVYLQMNSLKPEVTAVYYCNKYTNGRNFDYWGQGTQVTVSS”, the “polyreactivity (PSR sort gate)” value is reported as “high polyreactivity”. For “QVQLVESGGGLVQAGGSLRLNCAASGSIFLIYAMGWYRQATGKERELVAGINWSGSRTYNADSVKGRFTISRDNAKNTVYLQMNSLKPEDTAVYYCAARVRRPLYSAYDSWGQGTQVTVSS”, the “polyreactivity (PSR sort gate)” value was “low polyreactivity”.
